T1: CTLA-4 (BMS, Orencia) (human)
T1 chain: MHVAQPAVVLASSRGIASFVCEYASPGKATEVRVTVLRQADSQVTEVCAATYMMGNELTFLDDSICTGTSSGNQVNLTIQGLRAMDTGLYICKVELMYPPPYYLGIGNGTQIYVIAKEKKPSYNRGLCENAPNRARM


Columns and labels:
[1] = biological target: CD137 on primary human CD8+ T cells (human, UniProt Q07011 24-255); assay: cell-based or functional assay
[2] = biological target: T2, CD137 human/mouse chimera 1554 (human; mouse, UniProt P20334 96-159, limits assumed); assay: FACS, 293-F transfectants; MFI/isotype, normalized to full-length CD137
T2 construct: domain: 3B, 4A and 4B; On 293-F cells; Human ranges derived from the printed mouse range; also called 1411

[3] = biological target: T1, CTLA-4 (BMS, Orencia); assay: cell-based or functional assay

T2 sequence (P20334 other isoform, or with tags, fused parts or gaps mutant limits assumed): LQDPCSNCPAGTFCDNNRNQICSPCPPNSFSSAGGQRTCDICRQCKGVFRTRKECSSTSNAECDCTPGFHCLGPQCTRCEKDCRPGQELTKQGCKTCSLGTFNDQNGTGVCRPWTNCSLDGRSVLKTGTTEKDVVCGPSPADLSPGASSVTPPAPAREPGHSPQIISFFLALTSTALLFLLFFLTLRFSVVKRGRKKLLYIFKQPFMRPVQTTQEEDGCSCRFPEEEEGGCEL
Sequence of CD137 on primary human CD8+ T cells (Q07011 24-255 limits assumed): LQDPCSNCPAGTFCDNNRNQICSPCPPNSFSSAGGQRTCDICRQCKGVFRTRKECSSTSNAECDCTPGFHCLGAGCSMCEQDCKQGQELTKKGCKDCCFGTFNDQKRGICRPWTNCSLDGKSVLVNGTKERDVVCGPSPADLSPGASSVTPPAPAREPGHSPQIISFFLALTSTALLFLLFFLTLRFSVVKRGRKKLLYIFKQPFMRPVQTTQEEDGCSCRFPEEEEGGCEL

Row | Mean IFN-γ (pg/ml), CD8+ T cell assay [1] | relative binding [2] | Mean IL-2 level (pg/ml) induced at 1.5 nM [3] | Binder
1 | 64400 pg/mL | 0.73 | – | anti-CD137 antibody 1204/1205 (antibody, IgG1, V domains shown, Produced as IgG; IgG1 format stated for the T cell assay) VH: EVQLLESGGGLVQPGGSLRLSCAASGFTFSSYYMGWVRQAPGKGLEWVSGIGSYYGYTGYADSVKGRFTISRDNSKNTLYLQMNSLRAEDTAVYYCARAYYDYNYYYAYFDYWGQGTLVTVSS VL: DIQMTQSPSSLSASVGDRVTITCRASQSISSYLNWYQQKPGKAPKLLIYAASSLQSGVPSRFSGSGSGTDFTLTISSLQPEDFATYYCQQSVPHYPFTFGQGTKLEIK
2 | – | – | 3200 pg/mL | bispecific OX40/CTLA-4 molecule 1526/1585 (bispecific antibody, human IgG1, kappa) heavy: not shown light: DIQMTQSPSSLSASVGDRVTITCRASQSISSYLNWYQQKPGKAPKLLIYAASSLQSGVPSRFSGSGSGTDFTLTISSLQPEDFATYYCQQYGSDSLLTFGQGTKLEIKRTVAAPSVFIFPPSDEQLKSGTASVVCLLNNFYPREAKVQWKVDNALQSGNSQESVTEQDSKDSTYSLSSTLTLSKADYEKHKVYACEVTHQGLSSPVTKSFNRGECSGGGGSGGGGSAPLKIQAYFNETADLPCQFANSQNLSLSELVVFWQDQENLVLNEVYLGKERFDSVDSKYMGRTSFDSDSWTLRLHNLQIKDKGRYQCIIHHKKPTGMINIHQMNSELSVLA

Source: patent US20180118841A1 (published 2018)
